# From PMC8307404, “Crystal Structure-Guided Design of Bisubstrate Inhibitors and Photoluminescent Probes for Protein Kinases of the PIM Family” (Molecules, 2021)
# Square brackets hold non-standard residues; d marks the D form. Peptide text beside a SMILES is read from it. * marks the point of attachment. X3 = O=C(CCCCCNCc1nc2c(sc3cc(Br)cnc32)c(=O)[nH]1)*
# Key:
# Assay in all cases: Kinase profiling (radiometric filter-binding)
# Assay type in all cases: biochemical
# NUAK1 = biological target: T1, NUAK1 (Homo sapiens, UniProt O60285); conditions: NUAK1, 1 µM inhibitor; read-out: Residual activity, %
# T1 sequence (O60285 1-661): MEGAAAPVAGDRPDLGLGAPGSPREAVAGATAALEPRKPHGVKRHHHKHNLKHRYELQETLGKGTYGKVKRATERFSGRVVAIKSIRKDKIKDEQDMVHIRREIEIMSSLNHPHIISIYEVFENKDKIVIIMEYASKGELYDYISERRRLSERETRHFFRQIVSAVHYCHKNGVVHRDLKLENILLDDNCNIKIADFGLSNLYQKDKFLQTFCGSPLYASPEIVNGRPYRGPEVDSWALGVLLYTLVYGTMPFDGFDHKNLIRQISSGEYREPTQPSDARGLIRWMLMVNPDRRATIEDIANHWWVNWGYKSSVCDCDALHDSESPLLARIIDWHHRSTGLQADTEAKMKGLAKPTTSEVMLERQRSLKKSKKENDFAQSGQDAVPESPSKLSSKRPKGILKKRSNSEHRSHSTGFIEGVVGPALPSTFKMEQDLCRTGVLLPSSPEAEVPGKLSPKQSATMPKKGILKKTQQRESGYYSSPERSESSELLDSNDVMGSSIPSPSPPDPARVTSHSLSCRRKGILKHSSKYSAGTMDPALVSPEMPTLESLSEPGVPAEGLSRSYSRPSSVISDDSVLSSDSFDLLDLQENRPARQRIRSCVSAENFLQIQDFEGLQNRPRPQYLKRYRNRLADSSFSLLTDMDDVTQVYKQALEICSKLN
# Summary of the method: (§1)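 Radiometric filter-binding; human PKs; ATP ≤ KM per kinase; compound 1 µM final; readout = % residual activity vs no-inhibitor control.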
# BRK = BRK (Homo sapiens, UniProt Q13882); conditions: 1 µM inhibitor, read-out: Residual activity, %
# Summary of the method: as §1
# MKK6 = biological target: T2, MKK6 (Homo sapiens, UniProt P52564); conditions: MKK6, 1 µM inhibitor; read-out: Residual activity, %
# T2 sequence (P52564 1-334): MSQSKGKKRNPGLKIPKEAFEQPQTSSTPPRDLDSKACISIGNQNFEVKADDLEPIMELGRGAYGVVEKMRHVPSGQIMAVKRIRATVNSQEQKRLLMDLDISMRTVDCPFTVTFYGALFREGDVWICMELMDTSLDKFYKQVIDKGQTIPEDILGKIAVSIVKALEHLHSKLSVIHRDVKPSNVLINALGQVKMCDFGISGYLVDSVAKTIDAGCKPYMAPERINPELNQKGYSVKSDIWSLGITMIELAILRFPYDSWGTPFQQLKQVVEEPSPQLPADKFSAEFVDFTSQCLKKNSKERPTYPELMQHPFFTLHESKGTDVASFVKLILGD
# Summary of the method: as §1
# CK1δ = CK1δ (Homo sapiens, UniProt P48730); conditions: 1 µM inhibitor, read-out: Residual activity, %
# Summary of the method: as §1
# ERK1 = ERK1 (Homo sapiens, UniProt P27361); conditions: ERK1, 1 µM inhibitor; read-out: Residual activity, %
# Summary of the method: as §1
# ULK2 = biological target: T3, ULK2 (Homo sapiens, UniProt Q8IYT8); conditions: ULK2, 1 µM inhibitor; read-out: Residual activity, %
# T3 sequence (Q8IYT8 1-1036): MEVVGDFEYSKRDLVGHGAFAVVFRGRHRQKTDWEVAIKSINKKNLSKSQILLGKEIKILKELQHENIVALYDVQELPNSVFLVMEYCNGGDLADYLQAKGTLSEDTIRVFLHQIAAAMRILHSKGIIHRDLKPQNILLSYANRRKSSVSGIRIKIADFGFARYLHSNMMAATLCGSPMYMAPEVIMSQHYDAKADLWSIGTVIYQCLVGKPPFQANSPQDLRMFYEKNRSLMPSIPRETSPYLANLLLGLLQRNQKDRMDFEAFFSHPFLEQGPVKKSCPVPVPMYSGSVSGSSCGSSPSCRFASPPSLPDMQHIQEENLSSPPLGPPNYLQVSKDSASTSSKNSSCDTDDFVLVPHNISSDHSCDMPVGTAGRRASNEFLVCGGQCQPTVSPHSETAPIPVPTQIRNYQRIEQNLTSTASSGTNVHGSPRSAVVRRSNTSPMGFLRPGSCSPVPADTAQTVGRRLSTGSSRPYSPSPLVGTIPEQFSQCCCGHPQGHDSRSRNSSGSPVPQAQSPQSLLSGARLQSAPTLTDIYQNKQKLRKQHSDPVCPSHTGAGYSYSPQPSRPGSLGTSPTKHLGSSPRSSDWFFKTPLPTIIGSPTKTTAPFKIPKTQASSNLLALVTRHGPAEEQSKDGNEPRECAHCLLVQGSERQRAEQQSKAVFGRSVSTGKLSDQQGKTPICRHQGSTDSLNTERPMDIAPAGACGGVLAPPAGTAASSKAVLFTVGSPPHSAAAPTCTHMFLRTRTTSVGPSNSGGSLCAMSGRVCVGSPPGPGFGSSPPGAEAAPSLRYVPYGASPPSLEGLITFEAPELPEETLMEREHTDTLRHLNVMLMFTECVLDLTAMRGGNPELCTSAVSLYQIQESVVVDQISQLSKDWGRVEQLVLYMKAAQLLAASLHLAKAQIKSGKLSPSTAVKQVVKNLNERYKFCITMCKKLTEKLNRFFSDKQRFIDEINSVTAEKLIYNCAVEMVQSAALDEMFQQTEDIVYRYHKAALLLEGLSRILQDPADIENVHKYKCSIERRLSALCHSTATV
# Summary of the method: as §1
# PDGFRA = PDGFRA (Homo sapiens, UniProt P16234); conditions: 1 µM inhibitor, read-out: Residual activity, %
# Summary of the method: as §1
# MST3 = MST3 (Homo sapiens, UniProt Q9Y6E0); conditions: MST3, 1 µM inhibitor; read-out: Residual activity, %
# Summary of the method: as §1
# Sequence of PDGFRA (P16234 24-1089): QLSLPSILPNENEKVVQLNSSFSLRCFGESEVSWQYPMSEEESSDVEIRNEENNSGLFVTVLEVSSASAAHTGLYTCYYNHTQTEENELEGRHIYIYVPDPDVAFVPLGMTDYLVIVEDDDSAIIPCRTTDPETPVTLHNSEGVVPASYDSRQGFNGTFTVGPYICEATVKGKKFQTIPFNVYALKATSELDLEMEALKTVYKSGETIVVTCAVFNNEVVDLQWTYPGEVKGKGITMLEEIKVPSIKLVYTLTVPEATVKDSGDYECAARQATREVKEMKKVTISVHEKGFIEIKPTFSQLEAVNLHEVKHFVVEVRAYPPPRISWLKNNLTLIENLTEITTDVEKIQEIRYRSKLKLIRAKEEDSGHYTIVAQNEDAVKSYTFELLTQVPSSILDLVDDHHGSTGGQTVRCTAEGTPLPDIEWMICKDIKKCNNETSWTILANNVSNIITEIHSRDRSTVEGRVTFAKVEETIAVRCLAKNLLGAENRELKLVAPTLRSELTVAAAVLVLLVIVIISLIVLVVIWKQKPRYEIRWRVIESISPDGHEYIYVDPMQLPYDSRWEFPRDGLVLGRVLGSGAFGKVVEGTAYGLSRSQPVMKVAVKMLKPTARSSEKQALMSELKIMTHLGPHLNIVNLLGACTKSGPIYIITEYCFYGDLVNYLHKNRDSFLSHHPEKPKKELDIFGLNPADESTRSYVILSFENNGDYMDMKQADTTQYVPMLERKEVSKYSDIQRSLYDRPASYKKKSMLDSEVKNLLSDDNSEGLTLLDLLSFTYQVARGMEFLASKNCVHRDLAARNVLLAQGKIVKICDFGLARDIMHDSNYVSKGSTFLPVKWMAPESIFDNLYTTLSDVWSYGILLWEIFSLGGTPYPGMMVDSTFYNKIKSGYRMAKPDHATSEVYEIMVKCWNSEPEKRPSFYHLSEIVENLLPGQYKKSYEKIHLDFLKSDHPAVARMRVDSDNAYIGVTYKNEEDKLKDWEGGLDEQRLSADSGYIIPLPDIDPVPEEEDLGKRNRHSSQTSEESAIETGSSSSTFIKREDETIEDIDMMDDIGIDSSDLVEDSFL
# Sequence of CK1δ (P48730 whole entry): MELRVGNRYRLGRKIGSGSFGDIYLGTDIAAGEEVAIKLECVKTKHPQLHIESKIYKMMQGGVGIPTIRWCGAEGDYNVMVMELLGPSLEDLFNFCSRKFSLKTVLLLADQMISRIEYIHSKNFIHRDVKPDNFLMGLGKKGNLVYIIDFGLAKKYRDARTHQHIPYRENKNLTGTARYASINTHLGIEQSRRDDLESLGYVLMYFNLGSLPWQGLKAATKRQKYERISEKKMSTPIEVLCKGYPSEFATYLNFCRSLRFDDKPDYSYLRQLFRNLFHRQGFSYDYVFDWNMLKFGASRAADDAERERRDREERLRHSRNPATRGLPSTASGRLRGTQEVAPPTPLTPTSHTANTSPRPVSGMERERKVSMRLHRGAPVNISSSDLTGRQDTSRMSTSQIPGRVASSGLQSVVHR
# Sequence of BRK (Q13882 whole entry): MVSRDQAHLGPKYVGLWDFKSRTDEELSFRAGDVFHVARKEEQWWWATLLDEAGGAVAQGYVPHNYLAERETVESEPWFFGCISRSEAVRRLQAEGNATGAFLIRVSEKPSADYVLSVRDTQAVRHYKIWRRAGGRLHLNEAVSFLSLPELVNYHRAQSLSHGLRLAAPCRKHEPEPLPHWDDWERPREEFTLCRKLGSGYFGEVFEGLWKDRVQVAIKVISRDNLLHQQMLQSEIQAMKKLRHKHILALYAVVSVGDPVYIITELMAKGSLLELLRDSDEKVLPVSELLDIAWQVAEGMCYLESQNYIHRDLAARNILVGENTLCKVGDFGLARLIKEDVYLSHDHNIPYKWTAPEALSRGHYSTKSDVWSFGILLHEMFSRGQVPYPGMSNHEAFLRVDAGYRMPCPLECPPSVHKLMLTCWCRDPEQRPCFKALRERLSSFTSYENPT
# Sequence of MST3 (Q9Y6E0 whole entry): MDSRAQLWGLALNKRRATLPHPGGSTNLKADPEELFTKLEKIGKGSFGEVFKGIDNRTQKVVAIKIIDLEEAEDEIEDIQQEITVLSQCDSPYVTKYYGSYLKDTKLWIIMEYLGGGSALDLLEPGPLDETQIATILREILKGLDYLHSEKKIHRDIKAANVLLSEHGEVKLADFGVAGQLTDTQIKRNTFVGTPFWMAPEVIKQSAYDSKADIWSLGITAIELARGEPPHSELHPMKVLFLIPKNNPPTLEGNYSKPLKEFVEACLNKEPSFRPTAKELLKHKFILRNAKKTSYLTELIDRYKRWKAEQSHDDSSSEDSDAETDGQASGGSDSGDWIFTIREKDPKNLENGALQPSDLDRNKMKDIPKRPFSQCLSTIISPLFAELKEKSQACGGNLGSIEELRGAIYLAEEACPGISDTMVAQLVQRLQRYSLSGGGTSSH
# Sequence of ERK1 (P27361 whole entry): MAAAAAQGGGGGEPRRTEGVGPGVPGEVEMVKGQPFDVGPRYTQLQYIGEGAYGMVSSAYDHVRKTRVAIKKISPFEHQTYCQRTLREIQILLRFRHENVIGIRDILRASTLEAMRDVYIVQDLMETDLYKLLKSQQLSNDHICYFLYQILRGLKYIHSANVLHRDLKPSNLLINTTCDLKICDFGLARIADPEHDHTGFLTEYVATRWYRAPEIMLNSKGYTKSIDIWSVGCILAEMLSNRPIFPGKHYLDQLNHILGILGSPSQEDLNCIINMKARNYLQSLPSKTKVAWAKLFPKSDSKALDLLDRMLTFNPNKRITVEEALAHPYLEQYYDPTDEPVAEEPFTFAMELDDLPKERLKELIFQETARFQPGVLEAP
compound,measurement,setting,value
"N=C(N)NCCC[C@@H](NC(=O)CCCCCNC(=O)Cn1cnc2c(I)c(I)c(I)c(I)c21)C(=O)N[C@H](CCCNC(=N)N)C(=O)N[C@H](CCCNC(=N)N)C(=O)N[C@H](CCCNC(=N)N)C(=O)N[C@H](CCCNC(=N)N)C(=O)N[C@H](CCCNC(=N)N)C(=O)N[C@H](CCCCN)C(N)=O [ARC-3125, TIBI-CH2-C(=O)-Ahx-(D-Arg)6-D-Lys-NH2]",remaining activity at 1 µM,NUAK1,7 ± 15%
same,remaining activity at 1 µM,BRK,82 ± 41%
same,remaining activity at 1 µM,MKK6,110 ± 10%
same,remaining activity at 1 µM,CK1δ,71 ± 4%
same,remaining activity at 1 µM,ERK1,89 ± 7%
same,remaining activity at 1 µM,ULK2,34 ± 3%
same,remaining activity at 1 µM,PDGFRA,97%
same,remaining activity at 1 µM,MST3,51 ± 24%
"N=C(N)NCCC[C@@H](NC(=O)CNC(=O)[C@@H](CCCNC(=N)N)NC(=O)[C@@H](CCCNC(=N)N)NC(=O)CCCCCCCNCc1nc2c(sc3cc(Br)cnc32)c(=O)[nH]1)C(=O)N[C@H](CCCCN)C(N)=O [Compound 1, BPTP-Aoc-(D-Arg)2-Gly-D-Arg-D-Lys-NH2]",remaining activity at 1 µM,NUAK1,95 ± 14%
same,remaining activity at 1 µM,BRK,126 ± 8%
same,remaining activity at 1 µM,MKK6,122 ± 2%
same,remaining activity at 1 µM,CK1δ,104 ± 4%
same,remaining activity at 1 µM,ERK1,119 ± 16%
same,remaining activity at 1 µM,ULK2,115 ± 5%
same,remaining activity at 1 µM,PDGFRA,115 ± 2%
same,remaining activity at 1 µM,MST3,104 ± 3%
"N=C(N)NCCC[C@@H](NC(=O)CCCCCNCc1nc2c(sc3cc(Br)cnc32)c(=O)[nH]1)C(=O)N[C@H](CCCNC(=N)N)C(=O)N[C@H](CCCNC(=N)N)C(=O)N[C@H](CCCNC(=N)N)C(=O)N[C@H](CCCNC(=N)N)C(=O)N[C@H](CCCNC(=N)N)C(=O)N[C@H](CCCCN)C(N)=O [ARC-3126, BPTP-Ahx-(D-Arg)6-D-Lys-NH2] (X3-[dR][dR][dR][dR][dR][dR][dK]-NH2)",remaining activity at 1 µM,NUAK1,47 ± 7%
same,remaining activity at 1 µM,BRK,81 ± 4%
same,remaining activity at 1 µM,MKK6,105 ± 1%
same,remaining activity at 1 µM,CK1δ,99 ± 1%
same,remaining activity at 1 µM,ERK1,84 ± 7%
same,remaining activity at 1 µM,ULK2,104 ± 9%
same,remaining activity at 1 µM,PDGFRA,116 ± 3%
same,remaining activity at 1 µM,MST3,102 ± 5%
"N=C(N)NCCC[C@@H](NC(=O)CNC(=O)[C@@H](CCCNC(=N)N)NC(=O)[C@@H](CCCNC(=N)N)NC(=O)Cn1cc(CNCc2nc3c(sc4ccc(Br)cc43)c(=O)[nH]2)nn1)C(=O)N[C@H](CCCCN)C(N)=O [Compound 3, BBTP-Amt-(D-Arg)2-Gly-D-Arg-D-Lys-NH2]",remaining activity at 1 µM,NUAK1,74 ± 6%
same,remaining activity at 1 µM,BRK,114 ± 13%
same,remaining activity at 1 µM,MKK6,126 ± 10%
same,remaining activity at 1 µM,CK1δ,88 ± 12%
same,remaining activity at 1 µM,ERK1,107 ± 6%
same,remaining activity at 1 µM,ULK2,104 ± 11%
same,remaining activity at 1 µM,PDGFRA,108 ± 4%
same,remaining activity at 1 µM,MST3,98 ± 1%
"N=C(N)NCCC[C@@H](NC(=O)CNC(=O)[C@@H](CCCNC(=N)N)NC(=O)[C@@H](CCCNC(=N)N)NC(=O)CCCCCCCNCc1nc2c(sc3ccc(Br)cc32)c(=O)[nH]1)C(=O)N[C@H](CCCCN)C(N)=O [Compound 2, BBTP-Aoc-(D-Arg)2-Gly-D-Arg-D-Lys-NH2]",remaining activity at 1 µM,NUAK1,102 ± 14%
same,remaining activity at 1 µM,BRK,114 ± 11%
same,remaining activity at 1 µM,MKK6,121 ± 3%
same,remaining activity at 1 µM,CK1δ,99 ± 3%
same,remaining activity at 1 µM,ERK1,125 ± 6%
same,remaining activity at 1 µM,ULK2,127 ± 9%
same,remaining activity at 1 µM,PDGFRA,101 ± 16%
same,remaining activity at 1 µM,MST3,112 ± 8%
